Experimental data: the Human Domainome abundance scans (Beltran et al. 2025)
± gives the uncertainty stated by the source.

B1: Bromodomain adjacent to zinc finger domain protein 2B, residues 1927 to 1982; numbered along this chain, Q9UIF8 (parent)
chain: KSIMKVYCQICRKGDNEELLLLCDGCDKGCHTYCHRPKITTIPDGDWFCPACIAKA

Variants of: B1
Test: abundance fitness (aPCA) (normalised: wild type 0, dead -1); higher = more abundant; growth selection in yeast, the domain comes from the species named
Conditions: Homo sapiens

Row | Variant | abundance fitness
1 | KSIMKVYCQICRKGDNEELLLLCDGCDKGCHTYCHRPKIITIPDGDWFCPACIAKA [T40I] | -0.123 ± 0.13
2 | KSIMKVYCQICRKGDNEELLLLCDGCDKGCHTYCHRPKIGTIPDGDWFCPACIAKA [T40G] | -0.106 ± 0.079
3 | KSIMKVYCQICRKGDNEELLLLCDGCDKGCHTYCHRPKIPTIPDGDWFCPACIAKA [T40P] | 0.031 ± 0.13
4 | KSIMKVYCQICRKGDNEELLLLCDGCDKGCHTYCHRPKINTIPDGDWFCPACIAKA [T40N] | -0.232 ± 0.14
5 | KSIMKVYCQICRKGDNEELLLLCDGCDKGCHTYCHRPKIMTIPDGDWFCPACIAKA [T40M] | -0.024 ± 0.14
6 | KSIMKVYCQICRKGDNEELLLLCDGCDKGCHTYCHRPKIETIPDGDWFCPACIAKA [T40E] | -0.026 ± 0.12
7 | KSIMKVYCQICRKGDNEELLLLCDGCDKGCHTYCHRPKIFTIPDGDWFCPACIAKA [T40F] | -0.015 ± 0.12
8 | KSIMKVYCQICRKGDNEELLLLCDGCDKGCHTYCHRPKIKTIPDGDWFCPACIAKA [T40K] | 0.072 ± 0.15
9 | KSIMKVYCQICRKGDNEELLLLCDGCDKGCHTYCHRPKIHTIPDGDWFCPACIAKA [T40H] | -0.128 ± 0.14
10 | KSIMKVYCQICRKGDNEELLLLCDGCDKGCHTYCHRPKILTIPDGDWFCPACIAKA [T40L] | -0.049 ± 0.083
11 | KSIMKVYCQICRKGDNEELLLLCDGCDKGCHTYCHRPKIDTIPDGDWFCPACIAKA [T40D] | -0.095 ± 0.21
12 | KSIMKVYCQICRKGDNEELLLLCDGCDKGCHTYCHRPKIATIPDGDWFCPACIAKA [T40A] | -0.164 ± 0.1
13 | KSIMKVYCQICRKGDNEELLLLCDGCDKGCHTYCHRYKITTIPDGDWFCPACIAKA [P37Y] | -0.602 ± 0.15
14 | KSIMKVYCQICRKGDNEELLLLCDGCDKGCHTYCHRWKITTIPDGDWFCPACIAKA [P37W] | -0.31 ± 0.1
15 | KSIMKVYCQICRKGDNEELLLLCDGCDKGCHTYCHRVKITTIPDGDWFCPACIAKA [P37V] | -0.228 ± 0.1
16 | KSIMKVYCQICRKGDNEELLLLCDGCDKGCHTYCHRPVITTIPDGDWFCPACIAKA [K38V] | -0.104 ± 0.088
17 | KSIMKVYCQICRKGDNEELLLLCDGCDKGCHTYCHRPSITTIPDGDWFCPACIAKA [K38S] | -0.059 ± 0.072
18 | KSIMKVYCQICRKGDNEELLLLCDGCDKGCHTYCHRPCITTIPDGDWFCPACIAKA [K38C] | -0.128 ± 0.1
19 | KSIMKVYCQICRKGDNEELLLLCDGCDKGCHTYCHRPYITTIPDGDWFCPACIAKA [K38Y] | -0.148 ± 0.12
20 | KSIMKVYCQICRKGDNEELLLLCDGCDKGCHTYCHRPHITTIPDGDWFCPACIAKA [K38H] | -0.153 ± 0.1
21 | KSIMKVYCQICRKGDNEELLLLCDGCDKGCHTYCHRPPITTIPDGDWFCPACIAKA [K38P] | -0.122 ± 0.092
22 | KSIMKVYCQICRKGDNEELLLLCDGCDKGCHTYCHRPWITTIPDGDWFCPACIAKA [K38W] | -0.216 ± 0.098
23 | KSIMKVYCQICRKGDNEELLLLCDGCDKGCHTYCHRPRITTIPDGDWFCPACIAKA [K38R] | -0.122 ± 0.074
24 | KSIMKVYCQICRKGDNEELLLLCDGCDKGCHTYCHRPLITTIPDGDWFCPACIAKA [K38L] | 0.015 ± 0.077

Row | Variant | abundance fitness
25 | KSIMKVYCQICRKGDNEELLLLCDGCDKGCHTYCHRPEITTIPDGDWFCPACIAKA [K38E] | -0.186 ± 0.11
26 | KSIMKVYCQICRKGDNEELLLLCDGCDKGCHTYCHRPQITTIPDGDWFCPACIAKA [K38Q] | -0.219 ± 0.13
27 | KSIMKVYCQICRKGDNEELLLLCDGCDKGCHTYCHRPMITTIPDGDWFCPACIAKA [K38M] | -0.09 ± 0.11
28 | KSIMKVYCQICRKGDNEELLLLCDGCDKGCHTYCHRPNITTIPDGDWFCPACIAKA [K38N] | -0.139 ± 0.12
29 | KSIMKVYCQICRKGDNEELLLLCDGCDKGCHTYCHRPIITTIPDGDWFCPACIAKA [K38I] | -0.071 ± 0.12
30 | KSIMKVYCQICRKGDNEELLLLCDGCDKGCHTYCHRPTITTIPDGDWFCPACIAKA [K38T] | -0.016 ± 0.092
31 | KSIMKVYCQICRKGDNEELLLLCDGCDKGCHTYCHRPFITTIPDGDWFCPACIAKA [K38F] | -0.147 ± 0.16
32 | KSIMKVYCQICRKGDNEELLLLCDGCDKGCHTYCHRPKKTTIPDGDWFCPACIAKA [I39K] | -0.111 ± 0.1
33 | KSIMKVYCQICRKGDNEELLLLCDGCDKGCHTYCHRPKMTTIPDGDWFCPACIAKA [I39M] | 0.039 ± 0.1
34 | KSIMKVYCQICRKGDNEELLLLCDGCDKGCHTYCHRPKSTTIPDGDWFCPACIAKA [I39S] | -0.087 ± 0.081
35 | KSIMKVYCQICRKGDNEELLLLCDGCDKGCHTYCHRPKDTTIPDGDWFCPACIAKA [I39D] | -0.194 ± 0.13
36 | KSIMKVYCQICRKGDNEELLLLCDGCDKGCHTYCHRPKTTTIPDGDWFCPACIAKA [I39T] | -0.124 ± 0.12
37 | KSIMKVYCQICRKGDNEELLLLCDGCDKGCHTYCHRPKETTIPDGDWFCPACIAKA [I39E] | 0.04 ± 0.099
38 | KSIMKVYCQICRKGDNEELLLLCDGCDKGCHTYCHRPKVTTIPDGDWFCPACIAKA [I39V] | -0.031 ± 0.08
39 | KSIMKVYCQICRKGDNEELLLLCDGCDKGCHTYCHRPKFTTIPDGDWFCPACIAKA [I39F] | -0.164 ± 0.15
40 | KSIMKVYCQICRKGDNEELLLLCDGCDKGCHTYCHRPKCTTIPDGDWFCPACIAKA [I39C] | 0.011 ± 0.12
41 | KSIMKVYCQICRKGDNEELLLLCDGCDKGCHTYCHRPKPTTIPDGDWFCPACIAKA [I39P] | -0.266 ± 0.12
42 | KSIMKVYCQICRKGDNEELLLLCDGCDKGCHTYCHRPKNTTIPDGDWFCPACIAKA [I39N] | 0.002 ± 0.18
43 | KSIMKVYCQICRKGDNEELLLLCDGCDKGCHTYCHRPKATTIPDGDWFCPACIAKA [I39A] | -0.068 ± 0.084
44 | KSIMKVYCQICRKGDNEELLLLCDGCDKGCHTYCHRPKHTTIPDGDWFCPACIAKA [I39H] | -0.189 ± 0.18
45 | KSIMKVYCQICRKGDNEELLLLCDGCDKGCHTYCHRPKGTTIPDGDWFCPACIAKA [I39G] | -0.1 ± 0.063
46 | KSIMKVYCQICRKGDNEELLLLCDGCDKGCHTYCHRPKQTTIPDGDWFCPACIAKA [I39Q] | -0.059 ± 0.095
47 | KSIMKVYCQICRKGDNEELLLLCDGCDKGCHTYCHRPKWTTIPDGDWFCPACIAKA [I39W] | -0.137 ± 0.095
